Results taken from the Immune Epitope Database (IEDB).
Values belong to the sequence of their own block, whether it stands above or below them.

Assays:
HLA-B*58:01 = assay: IEDB peptide-MHC binding, purified MHC/direct/fluorescence; filed as Kd, often an IC50 or EC50 that approximates it; ≥ and ≤ were set here for values at or beyond the usual limits of such assays; settings: source organism: Influenza A virus (A/Yilan/515/03(H3N2))
HLA-A*02:01 [1] = assay: IEDB peptide-MHC binding, purified MHC/competitive/fluorescence; ≥ and ≤ were set here for values at or beyond the usual limits of such assays
HLA-A*02:01 [2] = assay: IEDB peptide-MHC binding, purified MHC/direct/fluorescence; filed as Kd, often an IC50 or EC50 that approximates it; ≥ and ≤ were set here for values at or beyond the usual limits of such assays
HLA-A*11:01 [3] = assay: as above; settings: source organism: Salmonella enterica subsp. enterica serovar Typhi
HLA-A*69:01 = assay: as above
HLA-A*30:01 = assay: IEDB peptide-MHC binding, purified MHC/competitive/radioactivity; filed as Kd, often an IC50 or EC50 that approximates it; ≥ and ≤ were set here for values at or beyond the usual limits of such assays
HLA-B*15:01 = assay: IEDB peptide-MHC binding, purified MHC/direct/fluorescence; filed as Kd, often an IC50 or EC50 that approximates it; ≥ and ≤ were set here for values at or beyond the usual limits of such assays; settings: source organism: Influenza A virus (A/Chicken/Nanchang/2-220/2001(H3N6))
HLA-A*01:01 = assay: as above
HLA-A*11:01 [4] = assay: IEDB peptide-MHC binding, purified MHC/competitive/radioactivity; filed as Kd, often an IC50 or EC50 that approximates it; ≥ and ≤ were set here for values at or beyond the usual limits of such assays
HLA-A*68:01 = assay: as above
HLA-A*03:01 [5] = assay: as above
HLA-A*33:01 = assay: as above
HLA-A*31:01 = assay: as above
HLA-A*02:01 [6] = assay: IEDB peptide-MHC binding, purified MHC/competitive/fluorescence; filed as Kd, often an IC50 or EC50 that approximates it; ≥ and ≤ were set here for values at or beyond the usual limits of such assays
HLA-B*40:01 = assay: IEDB peptide-MHC binding, purified MHC/direct/fluorescence; filed as Kd, often an IC50 or EC50 that approximates it; ≥ and ≤ were set here for values at or beyond the usual limits of such assays; settings: source organism: Mycobacterium tuberculosis variant bovis
HLA-A*02:06 = assay: IEDB peptide-MHC binding, purified MHC/competitive/radioactivity; filed as Kd, often an IC50 or EC50 that approximates it; ≥ and ≤ were set here for values at or beyond the usual limits of such assays
HLA-A*02:02 = assay: as above
HLA-A*02:03 = assay: as above
HLA-A*03:01 [7] = assay: IEDB peptide-MHC binding, purified MHC/direct/fluorescence; filed as Kd, often an IC50 or EC50 that approximates it; ≥ and ≤ were set here for values at or beyond the usual limits of such assays; settings: source organism: Francisella tularensis subsp. holarctica OSU18
[8] = source organism: Zaire ebolavirus
[9] = source organism: Dengue virus 1 Brazil/97-11/1997
[10] = source organism: Vaccinia virus WR
[11] = source organism: Mycobacterium tuberculosis
[12] = source organism: Dengue virus 2 Jamaica/1409/1983
[13] = source organism: Listeria monocytogenes
[14] = source organism: Vaccinia virus Copenhagen
[15] = source organism: Dengue virus 4 Philippines/H241/1956
[16] = source organism: Lymphocytic choriomeningitis virus (strain Armstrong)
[17] = source organism: Mammarenavirus whitewaterense
[18] = source organism: SARS coronavirus Tor2
[19] = source organism: Mammarenavirus brazilense
[20] = source organism: Sudan ebolavirus
[21] = source organism: Dengue virus 3 Martinique/1243/1999
[22] = source organism: Entamoeba histolytica HM-1:IMSS

Sequence: KSFFSRLNW
Kd (HLA-B*58:01): 139 nM

Sequence: FLIKFLLIH
IC50 (HLA-A*02:01 [1]; [8]): ≥ 296000 nM

Sequence: FLYGWLFIL
Kd (HLA-A*02:01 [2]; source organism: Francisella tularensis subsp. tularensis): 102 nM

Sequence: AAGLPAIFV
Kd (HLA-A*11:01 [3]): 3860 nM
Kd (HLA-A*69:01; source organism: Salmonella enterica subsp. enterica serovar Typhi): 1070 nM

Sequence: RLKRMAISG
Kd (HLA-A*30:01; [9]): 138 nM

Sequence: HVSISSCNG
Kd (HLA-A*30:01; [10]): 502 nM

Sequence: TQFESLKIY
Kd (HLA-B*15:01): 211 nM

Sequence: NVMAADPPK
Kd (HLA-A*01:01; source organism: Yersinia pestis): ≥ 20000 nM

Sequence: RTKLMSNIK
Kd (HLA-A*11:01 [4]; [10]): 29.4 nM
Kd (HLA-A*68:01; [10]): 778 nM
Kd (HLA-A*03:01 [5]; [10]): 23.6 nM
Kd (HLA-A*30:01; [10]): 0.38 nM
Kd (HLA-A*33:01; [10]): ≥ 56800 nM
Kd (HLA-A*31:01; [10]): 4.49 nM

Sequence: KFRPLMIFM
Kd (HLA-A*30:01; [10]): 1.8 nM

Kd (HLA-A*02:01 [6]; source organism: Escherichia coli F11): 0.9 nM
Sequence: CLMTYSHHA

Sequence: FLHGGDFGV
Kd (HLA-A*69:01; [11]): 690 nM

Sequence: LAAVSVSPLL
Kd (HLA-A*30:01; [12]): 6020 nM

Sequence: MMPIKSIVTL
Kd (HLA-A*02:01 [6]; source organism: Variola virus): 5.1 nM

Sequence: KIKAGPRYV
Kd (HLA-A*30:01; [10]): 6.93 nM

Sequence: GLYEWISEQ
Kd (HLA-A*02:01 [2]; [13]): 177 nM
Kd (HLA-A*69:01; [13]): ≥ 20000 nM

Sequence: DLVHFASPL
IC50 (HLA-A*02:01 [1]; source organism: Hepatitis B virus): ≥ 366000 nM

Sequence: RARNRVSTG
Kd (HLA-A*30:01; [9]): 180 nM

Kd (HLA-A*69:01; source organism: Haemophilus influenzae): 3820 nM
Sequence: ATHKAPQPA

Sequence: GSRKSSSIL
Kd (HLA-A*30:01; [14]): 1.58 nM

Kd (HLA-A*02:01 [6]; source organism: Tupaia belangeri): 0.5 nM
Sequence: RMPEAAPPV

Sequence: AVKSEHTGK
Kd (HLA-A*30:01; source organism: Dengue virus 1 Singapore/S275/1990): 64.3 nM

Sequence: KVKKRYPEF
Kd (HLA-A*30:01; [10]): 103 nM

Sequence: KILAKAIFK
Kd (HLA-A*11:01 [4]; [15]): 79.3 nM
Kd (HLA-A*03:01 [5]; [15]): 11.9 nM
Kd (HLA-A*30:01; [15]): 292 nM

Sequence: SLYNLVKSSV
Kd (HLA-A*02:01 [6]; source organism: Variola virus): 3.2 nM

Sequence: FTNDSIISH
Kd (HLA-A*68:01; [16]): 81.9 nM
Kd (HLA-A*03:01 [5]; [16]): 303 nM
Kd (HLA-A*30:01; [16]): ≥ 45500 nM
Kd (HLA-A*33:01; [16]): 342 nM
Kd (HLA-A*31:01; [16]): 1990 nM

Sequence: LALLAAFKVR
Kd (HLA-A*30:01; [12]): 74.8 nM

Sequence: KAKWLTPFE
Kd (HLA-A*30:01; [10]): 667 nM

Sequence: RTRPRWIPA
Kd (HLA-A*01:01; [11]): ≥ 20000 nM

Sequence: VMRSRWSRK
Kd (HLA-A*03:01 [5]; [9]): 4.86 nM
Kd (HLA-A*30:01; [9]): 10.8 nM

Sequence: TLLMNELGV
Kd (HLA-A*02:01 [6]; source organism: Influenza A virus (A/nt/60/1968(H3N2))): 0.7 nM

Sequence: SEILPFTVL
Kd (HLA-B*40:01): 14.7 nM

Sequence: FKAALSSLA
IC50 (HLA-A*02:01 [1]; [8]): ≥ 109000 nM

Sequence: SQDTTIPDV
IC50 (HLA-A*02:01 [1]; [8]): 5340 nM

Sequence: TLNASQYAN
IC50 (HLA-A*02:01 [1]; [14]): ≥ 143000 nM

Sequence: RIYCSLFKNV
Kd (HLA-A*02:06; [10]): 7.1 nM
Kd (HLA-A*02:02; [10]): 913 nM
Kd (HLA-A*02:03; [10]): 29.6 nM

Sequence: ASKFVYVSV
Kd (HLA-A*30:01; [10]): 3.09 nM

Sequence: VCFWSTLFYV
Kd (HLA-A*02:06; [17]): 1130 nM
Kd (HLA-A*02:02; [17]): 348 nM
Kd (HLA-A*02:03; [17]): 7010 nM

Sequence: EQYTCNKPYT
Kd (HLA-A*02:06; [10]): ≥ 45700 nM
Kd (HLA-A*02:02; [10]): 14000 nM
Kd (HLA-A*02:03; [10]): 3010 nM

Sequence: LNIMNKLNI
Kd (HLA-A*02:01 [6]; [14]): 406 nM

Sequence: FLTCTDRSV
Kd (HLA-A*02:01 [6]; source organism: Human alphaherpesvirus 1 strain 17): 83 nM

Sequence: SQKTTWLPV
Kd (HLA-A*02:06; [9]): 175 nM
Kd (HLA-A*30:01; [9]): 15.1 nM

Sequence: MGRFGYVPY
Kd (HLA-A*30:01; [10]): 14.8 nM

Sequence: CLDAGINYV
Kd (HLA-A*02:06; [18]): 1.56 nM
Kd (HLA-A*02:02; [18]): 0.569 nM
Kd (HLA-A*02:03; [18]): 6.43 nM

Sequence: LRYFIMAYV
Kd (HLA-A*02:06; [19]): ≥ 20100 nM
Kd (HLA-A*02:02; [19]): 213 nM
Kd (HLA-A*02:03; [19]): 395 nM

Sequence: KMLEASTIY
Kd (HLA-A*03:01 [7]): 190 nM

Sequence: LLPDSDVFV
Kd (HLA-A*02:01 [6]; [10]): 1.1 nM

Sequence: AVKFAEESYT
Kd (HLA-A*02:06; [10]): 2270 nM
Kd (HLA-A*02:02; [10]): 1760 nM
Kd (HLA-A*02:03; [10]): 1470 nM

Sequence: HIPEGETTL
IC50 (HLA-A*02:01 [1]; [20]): 56200 nM

Sequence: ESRTIRVLK
Kd (HLA-A*68:01; [21]): 237 nM
Kd (HLA-A*30:01; [21]): 8.81 nM

Sequence: CLPPPPDGV
IC50 (HLA-A*02:01 [1]; [20]): 1490 nM

Sequence: MTFGDIPLV
Kd (HLA-A*30:01; [10]): 235 nM

Sequence: KIKLILANK
Kd (HLA-A*11:01 [4]; [10]): 146 nM
Kd (HLA-A*68:01; [10]): ≥ 28300 nM
Kd (HLA-A*03:01 [5]; [10]): 21.6 nM
Kd (HLA-A*30:01; [10]): 109 nM
Kd (HLA-A*33:01; [10]): ≥ 25600 nM
Kd (HLA-A*31:01; [10]): 1.46 nM

Sequence: MLLTFLTSLL
Kd (HLA-A*02:06; [18]): 24.6 nM
Kd (HLA-A*02:02; [18]): 0.734 nM
Kd (HLA-A*02:03; [18]): 7.34 nM

Sequence: IDFLLRRWG
IC50 (HLA-A*02:01 [1]; [20]): 26200 nM

Sequence: NVGRILGYV
Kd (HLA-A*02:01 [2]; [22]): 146 nM
Kd (HLA-A*69:01; [22]): 3.7 nM

Sequence: TIILNKIVQL
Kd (HLA-A*02:06; [10]): 30.4 nM
Kd (HLA-A*02:02; [10]): 1760 nM
Kd (HLA-A*02:03; [10]): ≥ 49300 nM

Sequence: NIDSIMSMM
Kd (HLA-A*02:06; [10]): 4720 nM
Kd (HLA-A*02:02; [10]): 25 nM
Kd (HLA-A*02:03; [10]): 874 nM
